20 molecules from patent publication US20240327505A1 (published 2024) can be followed below.

Sequences and labels used below:
B1: AB-009346 (antibody, V domains shown)
VH: EVQLVESGGGVVRPGGSLRLSCAASGFTFDDYGMSWVRQAPGKGLEWVSGINWNGGSTGYADSVKGRFTISRDNAKNSLYLQMNSLRAEDTALYYCARWPLLGISGYYHYYMDVWGKGTTVTVSS
VL: QSALTQPRSVSGSPGQSVTISCTGTSSDVGGYNYVSWYQQHPGKAPKLMIYDVSKRPSGVPDRFSGSKSGNTASLTISGLQAEDEADYYCCSYAGSYTLLFGGGTKLIVL
B2: AB-009281 (antibody, V domains shown)
VH: EVQLVETGGGLIQPGGSLRLSCAASGFTVSSNYMSWVRQAPGKGLEWVSVIYSGGSTYYADSVKGRFTISRDNSKNTLYLQMNSLRAEDTAVYYCARDLYYYGMDVWGQGTTVTVSS
VL: DIQLTQSPSFLSASVGDRVTITCRASQGISSYLAWYQQKPGKAPKLLIYAASTLQSGVPSRFSGSGSGTEFTLTISSLQPEDFATYYCQQLNSYPTFGQGTKVEIK
B3: AB-009074 (antibody, V domains shown)
VH: QVQLVESGGGVVQPGRSLRLSCAASGFTFSSYGMHWVRQAPGKGLEWVAVIWYDGSNKYYADSVKGRFTISRDNSKNTLYLQMNSLRAEDTAVYYCAREGLVGATTGFDYWGQGTLVTVSS
VL: SYELTQPPSVSVSPGQTARITCSGDALPKKYAYWYQQKSGQAPVLVIYEDSKRPSGIPERFSGSSSGTMATLTISGAQVEDEADYYCYSTDSSGNHGVFGTGTKVTVL
B4: AB-009306 (antibody, V domains shown)
VH: QVQLVQSGAEVKKPGASVKVPCKASGYTFTSYQMHWVRRAPGQGLEWMGLIDPDTGGTRYTQNFQGRVTMTRDTSTTTVYMELNSLTSGDTAVYYCARGGRVGATYPYNMDVWGKGTTVTVSS
VL: B3 VL with E82D, A83S, Y88F, T101G, K104R, V105L
B5: AB-009293 (antibody, V domains shown)
VH: QAQLVESGGGVVQPGRSLRLSCAASGFNFNNYGMHWVRLAAGKGLEWVAFISYEGSITHYADSVKGRFTVSRDFSKNTLYLQMNRLTTGDTAVYYCAKRREVLHLWRDEMDVWGQGTTVTVSS
VL: DIQMTQSPPSLSASVGDRVTFTCRASQDITNSLAWFQQRPGKAPKSLIYAASTLHSGVPSKFSGSGSGTDFTLTITSLQPEDVATYYCQQYKTYPFTFGQGTRLEIK
B6: AB-009117 (antibody, V domains shown)
VH: ELQLVESGGGLVKPGGSLRLSCTASGFTFISYSISWVRQAPGKGLEWVSSISSYSNYIFYGDSVKGRFNISRDNPKNSVYLQLNSLRAEDTAVYYCVRDTSFYEGGGYYNRFEPWGQGTRVTVSS
VL: EIVMTQSPATLSVSPGERATLSCRASQSISINLAWYQQRPGQAPRLLIYGASTRATGIPARFSGSGSGTEFTLTISSLQSEDSAVYYCQQYNNWPPYTFGQGTTLEIK
B7: AB-009078 (antibody, V domains shown)
VH: QITLKESGPTLVKPTQTLTLTCTFSGFSLSTSGVGVGWIRQPPGKALEWLALIYWDDDKRYSPSLKSRLTITKDTSKNQVVLTMTNMDPVDTATYYCAHRPGDFWSGYYRYWGQGTLVTVSS
VL: not shown
B8: AB-009123 (antibody, V domains shown)
VH: QVQLLQSGAEVRKPGASVKVSCKASGYTFSSYVMHWVRQAPGQGLEWMGWINTGNGNTRYSQKIQGRVTFTIDTAANTVNMEVSSLRSEDTAVYYCAREGLRATHYFDYWGRGTLVTVSS
VL: SYELTQPPSVSVSSGQTASIPCSGDRVGDRYVCWYQQKPGQSPVLVIYQDSKRPSGIPERFSGSNSGSTATLTISGTQAIDEADYYCQAWDSSTGGVFGGGTKLTVL
B9: AB-009263 (antibody, V domains shown)
VH: EVQLVQSGAEVKKPGESLRISCQSSGYSFSTYWIAWVRQTPEKGLEWMGIIYPGDSDTRYSPTFQGQVTISADTSISTAYLQWSSLKASDTAVYYCARFRFNWLLSYYYYYMDVWGKGTTVSVSS
VL: QSALTQPDSVSGSPGQSIAISCTGTSRDVGGYNYVSWYQQHPGKAPKLMIYEVSNRPSGVSDRFSGSKSDNTASLTISGLQGDDEANYYCSSYTDSGTLVFGGGTKVTVL
B10: AB-009635 (antibody, V domains shown)
VH: not shown
VL: B3 VL with G97R, T101G, V105L
B11: AB-009731 (antibody, V domains shown)
VH: QVQLVQSGAEVKKTGASVKLSCKASGYSLTSYAMHWVRQAPGQRLEWMGWLNGGNGNTKYSQKFQARVTITSDTSARTVYMELSSLTSEDTAVYYCARADHSTYWYGWFDPWGQGTLVTVSS
VL: QSVLTQPPSASGTPGQRVTISCSGSTSNIGSNYVFWYQQFPGTAPKLLIYRNDQRPSGVPDRFSASKAGTSASLAISGLRSEDEADYYCTSWDDSLNGPLFGGGTKLTVL
B12: AB-009609 (antibody, V domains shown)
VH: QVQLVQSGAEVKKPGASVKVSCKVSGYTLTELSMHWVRQAPGKGLEWMGGFDPEDAETIYAQKFQGRVTMTEDTSTDTAYMELSSLRSEDTAVYYCATALAVTGTSDSYYYYYGMDVWGQGTTVTVSS
VL: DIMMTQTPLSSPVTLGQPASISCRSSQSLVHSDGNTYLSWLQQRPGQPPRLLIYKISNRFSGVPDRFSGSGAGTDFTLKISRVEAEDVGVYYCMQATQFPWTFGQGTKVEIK
B13: AB-009280 (antibody, V domains shown)
VH: QVQLVESGGGVVQPGRSLRLSCAASGFTFSSYGMHWVRQAPGKGLEWVAVISYDGSNKYYADSVKGRFTISRDNSKNTLYLQMNSLRAEDTAVYYCAKSRGGGYYYYYMDVWGKGTTVTVSS
VL: DIQMTQSPSSLSASVGDRVTITCRASQGISNYLAWFQQKPGKAPKSLIYAASSLQSGVPSKFSGSGSGTDFTLTISSLQPEDFATYYCQQYNSYPPTFGQGTKLEIK
B14: AB-009722 (antibody, V domains shown)
VH: QVQLVQSGAEVRKPGSSVKVSCNVSGGIFNSYKITWVRQAPGQGLEWMGGIIAIFGTADYAQRFQGRLSITADESTSTAYMELSSLRSDDTAVYYCTRERFSNYFDPWGQGTLVTVSS
VL: EVVLTQSPATLSLSPGERATLSCRASQSVSSFLGWYQQKPGQAPRLLIYDASNRASGIPARFSGSGSGTDFTLTISKLEPEDFAVYYCQQRSRGPSGITFGQGTRLEIK
B15: AB-009275 (antibody, V domains shown)
VH: QVTLRESGPALVKPTQTLTLTCTFSGFSLSTSGMRVSWIRQPPGKALEWLARIDWDDDKFYSTSLKTRLTISKDTSKNQVVLTMTNMDPVDTATYYCARSNYDILTGRLDAFDIWGQGTMVTVSS
VL: not shown
B16: AB-009637 (antibody, V domains shown)
VH: QVQLVQSGAEVKKPGSSVKVSCKASGGTFSSYAISWVRQAPGQGLEWMGGIIPILGTANYAQKFQGRVTITADKSTSTAYMELSSLRSEDTAMYYCAREGGFYGSGRNFDYWGQGTLVTVSS
VL: not shown
B17: AB-009619 (antibody, V domains shown)
VH: QVQLVQSGAEVKKPGASVKVSCKVSGYTLIELSMHWVRQAPGKGLEWMGGFDPEDGETIYAQKFQGRVTMTEDTSTDTAYMELSSLRSEDTAVYYCATGPAAATSGWFDPWGQGTLVTVSS
VL: QSALTQPASVSGSPGQSITISCTGTSSDVGGYNYVSWYQQHPGKAPKLMIYDVSNRPSGVSNRFSGSKSGNTASLTISGLQAEDEADYYCSSYTSSSTRVFGGGTKLTVL
B18: AB-009646 (antibody, V domains shown)
VH: QVQLVESGGGVVQPGRSLRLSCAASGFTFSSYAMHWVRQAPGKGLEWVAVISYDGSNKYYADSVKGRFTISRDNSKNTLYLQMNSLRAEDTAVYYCARACSSTSCYKGDAFDIWGQGTMVTVSS
VL: SYELTQPPSVSVSPGQTARITCSGDALPKQYAYWYQQKPGQAPVLVIYKDSERPSGIPERFSGSSSGTTVTLTISGVQAEDEADYYCQSADSSGTYSWVFGGGTKLTVL
B19: AB-009108 (antibody, V domains shown)
VH: QVQLQESGPGLVKPSETLALTCTVSGDSIINNNFYWGWLRQPPGQGLEWIGSLFHTGSAYYNSSLKSRVRSSVDTARNQISLRLSSVTAADTAVYYCARVNIVSVPAPPGAIEGWFDPWGQGTRVTVSP
VL: SYELTQPPSVSVSLGQTARISCSGDALPTKYVHWYQQKAGQAPVVVIFRDTERPSEIPERFSGSSSGTTVTLTISGVQAEDEADYYCQSVDGSGFYVFGSGTKVTVL
B20: AB-009634 (antibody, V domains shown)
VH: QVTLKESGPALVKPTQTLTLTCTFSGFSLSTSGMRVSWIRQPPGKALEWLARIDWDDDKFYSTSLKTRLTISKDTSKNQVVLTMTNMDPVDTATYYCARYYYYGMDVWGQGTTVTVSS
VL: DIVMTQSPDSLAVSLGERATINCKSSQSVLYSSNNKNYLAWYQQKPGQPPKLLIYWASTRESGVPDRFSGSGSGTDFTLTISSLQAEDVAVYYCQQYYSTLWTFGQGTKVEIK

Numbering of substitutions follows the chain as printed.

In one assay the target is SARS-CoV-2 spike S1 protein (SARS-CoV-2, UniProt P0DTC2 16-685).
B1 registered a Kd of 12.5 nM, a koff of 0.000523 s⁻¹ and a kon of 41700 M⁻¹ s⁻¹.
In turn, B2 returned a Kd of 16.7 nM, an off-rate constant (koff) of 0.00136 s⁻¹ and a kon of 81200 M⁻¹ s⁻¹.

For another assay, the target named is SARS-CoV-2 spike S2 protein (SARS-CoV-2, UniProt P0DTC2 686-1213).
As to B3, the affinity, expressed as Kd, was 91.3 nM; the koff came out at 0.0011 s⁻¹; the kon came out at 12000 M⁻¹ s⁻¹.
In turn, B4 had a dissociation constant (Kd) of 0.22 nM, a koff of 2.44e-07 s⁻¹ and a kon of 1110 M⁻¹ s⁻¹.
Take B5: the affinity, expressed as Kd, was 0.0628 nM; the koff was determined as 3.25e-07 s⁻¹; the kon turned out to be 5170 M⁻¹ s⁻¹.
Molecule B6 showed a Kd of 11.5 nM, a koff of 0.000438 s⁻¹ and a kon of 38200 M⁻¹ s⁻¹.
With B7, the Kd amounted to 0.0474 nM, the koff is 2.44e-07 s⁻¹ and the kon turned out to be 5150 M⁻¹ s⁻¹.
In turn, B8 registered a dissociation constant (Kd) of 18.9 nM, an off-rate (koff) of 0.000802 s⁻¹ and a kon of 42500 M⁻¹ s⁻¹.
For the molecule B9, the Kd turned out to be 0.0383 nM, the koff worked out at 3.82e-07 s⁻¹ and the kon was 9980 M⁻¹ s⁻¹.

Another assay has as its target SARS-CoV-2 spike S1 protein (SARS-CoV-2, UniProt P0DTC2 16-685). The source holds these as a separate data set.
Molecule B10 registered a Kd of 10.5 nM, a koff of 0.000749 s⁻¹ and a kon of 71500 M⁻¹ s⁻¹.
B11 yielded a Kd of 47.9 nM, a koff of 0.00294 s⁻¹ and a kon of 61400 M⁻¹ s⁻¹.
B12 registered a Kd of 49.4 nM, a koff of 0.00229 s⁻¹ and a kon of 46400 M⁻¹ s⁻¹.
In turn, B13 showed a Kd of 20.5 nM, a koff of 0.000536 s⁻¹ and a kon of 26200 M⁻¹ s⁻¹.
The matching figures for B14: 41.2 nM, 0.00236 s⁻¹ and 57300 M⁻¹ s⁻¹.
In the case of B15, the Kd was determined as 127 nM, the koff is 0.00083 s⁻¹ and the kon turned out to be 6530 M⁻¹ s⁻¹.
B16 returned a Kd of 412 nM, a koff of 0.000174 s⁻¹ and a kon of 421 M⁻¹ s⁻¹.
With B17, the Kd is 25.8 nM, the koff amounted to 0.000726 s⁻¹ and the kon stood at 28100 M⁻¹ s⁻¹.
For the molecule B18, the Kd was determined as 150 nM, the koff stood at 0.00231 s⁻¹ and the kon was 15500 M⁻¹ s⁻¹.
B19 had a Kd of 94.3 nM, a koff of 0.0126 s⁻¹ and a kon of 134000 M⁻¹ s⁻¹.
The matching figures for B20: 24.8 nM, 0.000496 s⁻¹ and 20000 M⁻¹ s⁻¹.
